Reference: patent US20220025003A1, “REAGENTS AND METHODS FOR CONTROLLING PROTEIN FUNCTION AND INTERACTION” (University of Washington, priority 2018, published 2022)
Ends that are not written are not given here.

Assays:
[1] = biological target: NS3a (active), Avi-His6-NS3a catalytically active; experiment: fluorescence polarization; FB50; settings: chains peptide; modification not given
[2] = biological target: NS3a (active), Avi-His6-NS3a catalytically active; experiment: fluorescence polarization; FB50; settings: chains peptide; modification not given; remark: listed apart in the source
[3] = biological target: NS3aH1-VPR, cells treated with danoprevir (hepatitis C virus); experiment: cell-based or functional assay
[4] = biological target: NS3aH1-VPR, cells treated with grazoprevir (hepatitis C virus); experiment: cell-based or functional assay

GSGSGELDELVYLLDGPGYDPIHSD (not fully specified (N-terminus)) [FAM-ANR]
EC50 [1]: 30 nM | EC50 [2]: 40 nM

B1: NLS-PCP-DNCR2 (from NLS-PCP-DNCR2-P2a-BFP) (designed binder)
chain: MPKKKRKVGSMSKTIVLSVGEATRTLTEIQSTADRQIFEEKVGPLVGRLRLTASLRQNGAKTAYRVNLKLDQADVVDSGLPKVRYTQVWSHDVTIVANSTEASRKSLYDLTKSLVATSQVEDLVVNLVPLGRGSGSGSSDEEEARELIERAKEAAERAQEAAERTGDPRVRELARELKRLAQEAAEEVKRDPSSSDVNEALKLIVEAIEAAVDALEAAERTGDPEVRELARELVRLAVEAAEEVQRNPSSSDVNEALHSIVYAIEAAIFALEAAERTGDPEVRELARELVRLAVEAAEEVQRNPSSRNVEHALMRIVLAIYLAEENLREAEESGDPEKREKARERVREAVERAEEVQRDPSGWLNHEQKLISEEDLGSGATNFSLLKQAGDVEENPG
EC50 of the danoprevir titration, GFP fluorescence [3]: 0.79 nM

B2: NLS-MCP-GNCR1 (from NLS-MCP-GNCR1-P2a-BFP) (designed binder)
chain: MPKKKRKVGSMASNFTQFVLVDNGGTGDVTVAPSNFANGIAEWISSNSRSQAYKVTCSVRQSSAQNRKYTIKVEVPKGAWRSYLNMELTIPIFATNSDCELIVKAMQGLLKDGNPIPSAIAANSGIYGSGGSGDIEKLCKKAEEEAKEAQEKADELRQRHPDSQAAEDAEDLANLAVAAVLTACLLAQEHPNADIAKLCIKAASEAAEAASKAAELAQRHPDSQAARDAIKLASQAARAVILAIMLAAENPNADIAKLCIKAASEAAEAASKAAELAQRHPDSQAARDAIKLASQAAEAVERAIWLAAENPNADIAKKCIKAASEAAEEASKAAEEAQRHPDSQKARDEIKEASQKAEEVKERCKSEQKLISEEDLGSGATNFSLLKQAGDVEENPG
EC50 of the grazoprevir titration, CXCR4 immunofluorescence [4]: 0.16 nM
